Measured values published in patent US20260167699A1 (Chugai, published 2026).

The binders below were run against T1, FcγRIIIa extracellular domain, C-terminal His tag (human, UniProt P08637 17-208) (assay: SPR, binding activity relative to GpH7-A5/GpH7-B3/GpL16-k0 (=100)).
T1 construct: extracellular domain; also called 3a
T1 sequence (P08637 other isoform, or with tags, fused parts or gaps): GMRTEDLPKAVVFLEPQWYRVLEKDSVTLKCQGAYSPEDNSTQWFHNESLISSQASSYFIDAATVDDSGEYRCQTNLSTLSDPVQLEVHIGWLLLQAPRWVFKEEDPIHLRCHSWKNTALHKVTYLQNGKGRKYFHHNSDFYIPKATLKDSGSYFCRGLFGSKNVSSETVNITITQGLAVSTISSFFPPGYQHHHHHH

| Binder | He/Con 3a |
| --- | --- |
| GpH7-A5/GpH7-B3 variant L235_03V/GpL16-k0 (antibody, human IgG1, kappa, He Ab; copies: 1 + 1 + 2) heavy 1: not shown heavy 2: not shown light: DIVMTQSPLSLPVTPGEPASISCQASESLVHSNRNTYLHWYLQKPGQSPQLLIYKVSNRFSGVPDRFSGSGSGTDFTLKISRVEAEDVGVYYCSQNTHVPPTFGQGTKVEIERTVAAPSVFIFPPSDEQLKSGTASVVCLLNNFYPREAKVQWKVDNALQSGNSQESVTEQDSKDSTYSLSSTLTLSKADYEKHKVYACEVTHQGLSSPVTKSFNRGEC | 94.6% |
| GpH7-A5/GpH7-B3 variant L235_04F/GpL16-k0 (antibody, human IgG1, kappa, He Ab; copies: 1 + 1 + 2) heavy 1: not shown heavy 2: not shown light: DIVMTQSPLSLPVTPGEPASISCQASESLVHSNRNTYLHWYLQKPGQSPQLLIYKVSNRFSGVPDRFSGSGSGTDFTLKISRVEAEDVGVYYCSQNTHVPPTFGQGTKVEIERTVAAPSVFIFPPSDEQLKSGTASVVCLLNNFYPREAKVQWKVDNALQSGNSQESVTEQDSKDSTYSLSSTLTLSKADYEKHKVYACEVTHQGLSSPVTKSFNRGEC | 76.4% |
| GpH7-A5/GpH7-B3 variant L235_05P/GpL16-k0 (antibody, human IgG1, kappa, He Ab; copies: 1 + 1 + 2) heavy 1: not shown heavy 2: not shown light: DIVMTQSPLSLPVTPGEPASISCQASESLVHSNRNTYLHWYLQKPGQSPQLLIYKVSNRFSGVPDRFSGSGSGTDFTLKISRVEAEDVGVYYCSQNTHVPPTFGQGTKVEIERTVAAPSVFIFPPSDEQLKSGTASVVCLLNNFYPREAKVQWKVDNALQSGNSQESVTEQDSKDSTYSLSSTLTLSKADYEKHKVYACEVTHQGLSSPVTKSFNRGEC | 68.6% |
| GpH7-A5/GpH7-B3 variant L235_06M/GpL16-k0 (antibody, human IgG1, kappa, He Ab; copies: 1 + 1 + 2) heavy 1: not shown heavy 2: not shown light: DIVMTQSPLSLPVTPGEPASISCQASESLVHSNRNTYLHWYLQKPGQSPQLLIYKVSNRFSGVPDRFSGSGSGTDFTLKISRVEAEDVGVYYCSQNTHVPPTFGQGTKVEIERTVAAPSVFIFPPSDEQLKSGTASVVCLLNNFYPREAKVQWKVDNALQSGNSQESVTEQDSKDSTYSLSSTLTLSKADYEKHKVYACEVTHQGLSSPVTKSFNRGEC | 75.6% |
| GpH7-A5/GpH7-B3 variant L235_07I/GpL16-k0 (antibody, human IgG1, kappa, He Ab; copies: 1 + 1 + 2) heavy 1: not shown heavy 2: not shown light: DIVMTQSPLSLPVTPGEPASISCQASESLVHSNRNTYLHWYLQKPGQSPQLLIYKVSNRFSGVPDRFSGSGSGTDFTLKISRVEAEDVGVYYCSQNTHVPPTFGQGTKVEIERTVAAPSVFIFPPSDEQLKSGTASVVCLLNNFYPREAKVQWKVDNALQSGNSQESVTEQDSKDSTYSLSSTLTLSKADYEKHKVYACEVTHQGLSSPVTKSFNRGEC | 92.8% |
| GpH7-A5/GpH7-B3 variant L235_09D/GpL16-k0 (antibody, human IgG1, kappa, He Ab; copies: 1 + 1 + 2) heavy 1: not shown heavy 2: not shown light: DIVMTQSPLSLPVTPGEPASISCQASESLVHSNRNTYLHWYLQKPGQSPQLLIYKVSNRFSGVPDRFSGSGSGTDFTLKISRVEAEDVGVYYCSQNTHVPPTFGQGTKVEIERTVAAPSVFIFPPSDEQLKSGTASVVCLLNNFYPREAKVQWKVDNALQSGNSQESVTEQDSKDSTYSLSSTLTLSKADYEKHKVYACEVTHQGLSSPVTKSFNRGEC | 88.5% |
| GpH7-A5/GpH7-B3 variant L235_10E/GpL16-k0 (antibody, human IgG1, kappa, He Ab; copies: 1 + 1 + 2) heavy 1: not shown heavy 2: not shown light: DIVMTQSPLSLPVTPGEPASISCQASESLVHSNRNTYLHWYLQKPGQSPQLLIYKVSNRFSGVPDRFSGSGSGTDFTLKISRVEAEDVGVYYCSQNTHVPPTFGQGTKVEIERTVAAPSVFIFPPSDEQLKSGTASVVCLLNNFYPREAKVQWKVDNALQSGNSQESVTEQDSKDSTYSLSSTLTLSKADYEKHKVYACEVTHQGLSSPVTKSFNRGEC | 85.6% |
| GpH7-A5/GpH7-B3 variant L235_13S/GpL16-k0 (antibody, human IgG1, kappa, He Ab; copies: 1 + 1 + 2) heavy 1: not shown heavy 2: not shown light: DIVMTQSPLSLPVTPGEPASISCQASESLVHSNRNTYLHWYLQKPGQSPQLLIYKVSNRFSGVPDRFSGSGSGTDFTLKISRVEAEDVGVYYCSQNTHVPPTFGQGTKVEIERTVAAPSVFIFPPSDEQLKSGTASVVCLLNNFYPREAKVQWKVDNALQSGNSQESVTEQDSKDSTYSLSSTLTLSKADYEKHKVYACEVTHQGLSSPVTKSFNRGEC | 67.2% |
| GpH7-A5/GpH7-B3 variant L235_14T/GpL16-k0 (antibody, human IgG1, kappa, He Ab; copies: 1 + 1 + 2) heavy 1: not shown heavy 2: not shown light: DIVMTQSPLSLPVTPGEPASISCQASESLVHSNRNTYLHWYLQKPGQSPQLLIYKVSNRFSGVPDRFSGSGSGTDFTLKISRVEAEDVGVYYCSQNTHVPPTFGQGTKVEIERTVAAPSVFIFPPSDEQLKSGTASVVCLLNNFYPREAKVQWKVDNALQSGNSQESVTEQDSKDSTYSLSSTLTLSKADYEKHKVYACEVTHQGLSSPVTKSFNRGEC | 73.2% |
| GpH7-A5/GpH7-B3 variant L235_15Y/GpL16-k0 (antibody, human IgG1, kappa, He Ab; copies: 1 + 1 + 2) heavy 1: not shown heavy 2: not shown light: DIVMTQSPLSLPVTPGEPASISCQASESLVHSNRNTYLHWYLQKPGQSPQLLIYKVSNRFSGVPDRFSGSGSGTDFTLKISRVEAEDVGVYYCSQNTHVPPTFGQGTKVEIERTVAAPSVFIFPPSDEQLKSGTASVVCLLNNFYPREAKVQWKVDNALQSGNSQESVTEQDSKDSTYSLSSTLTLSKADYEKHKVYACEVTHQGLSSPVTKSFNRGEC | 77.8% |
| GpH7-A5/GpH7-B3 variant L235_16H/GpL16-k0 (antibody, human IgG1, kappa, He Ab; copies: 1 + 1 + 2) heavy 1: not shown heavy 2: not shown light: DIVMTQSPLSLPVTPGEPASISCQASESLVHSNRNTYLHWYLQKPGQSPQLLIYKVSNRFSGVPDRFSGSGSGTDFTLKISRVEAEDVGVYYCSQNTHVPPTFGQGTKVEIERTVAAPSVFIFPPSDEQLKSGTASVVCLLNNFYPREAKVQWKVDNALQSGNSQESVTEQDSKDSTYSLSSTLTLSKADYEKHKVYACEVTHQGLSSPVTKSFNRGEC | 57.1% |
| GpH7-A5/GpH7-B3 variant L235_18N/GpL16-k0 (antibody, human IgG1, kappa, He Ab; copies: 1 + 1 + 2) heavy 1: not shown heavy 2: not shown light: DIVMTQSPLSLPVTPGEPASISCQASESLVHSNRNTYLHWYLQKPGQSPQLLIYKVSNRFSGVPDRFSGSGSGTDFTLKISRVEAEDVGVYYCSQNTHVPPTFGQGTKVEIERTVAAPSVFIFPPSDEQLKSGTASVVCLLNNFYPREAKVQWKVDNALQSGNSQESVTEQDSKDSTYSLSSTLTLSKADYEKHKVYACEVTHQGLSSPVTKSFNRGEC | 65% |
| GpH7-A5/GpH7-B3 variant L235_19Q/GpL16-k0 (antibody, human IgG1, kappa, He Ab; copies: 1 + 1 + 2) heavy 1: not shown heavy 2: not shown light: DIVMTQSPLSLPVTPGEPASISCQASESLVHSNRNTYLHWYLQKPGQSPQLLIYKVSNRFSGVPDRFSGSGSGTDFTLKISRVEAEDVGVYYCSQNTHVPPTFGQGTKVEIERTVAAPSVFIFPPSDEQLKSGTASVVCLLNNFYPREAKVQWKVDNALQSGNSQESVTEQDSKDSTYSLSSTLTLSKADYEKHKVYACEVTHQGLSSPVTKSFNRGEC | 68.1% |
| GpH7-A5/GpH7-B3 variant L235_20W/GpL16-k0 (antibody, human IgG1, kappa, He Ab; copies: 1 + 1 + 2) heavy 1: not shown heavy 2: not shown light: DIVMTQSPLSLPVTPGEPASISCQASESLVHSNRNTYLHWYLQKPGQSPQLLIYKVSNRFSGVPDRFSGSGSGTDFTLKISRVEAEDVGVYYCSQNTHVPPTFGQGTKVEIERTVAAPSVFIFPPSDEQLKSGTASVVCLLNNFYPREAKVQWKVDNALQSGNSQESVTEQDSKDSTYSLSSTLTLSKADYEKHKVYACEVTHQGLSSPVTKSFNRGEC | 73.8% |
| GpH7-A5/GpH7-B3 variant L328_02A/GpL16-k0 (antibody, human IgG1, kappa, He Ab; copies: 1 + 1 + 2) heavy 1: not shown heavy 2: not shown light: DIVMTQSPLSLPVTPGEPASISCQASESLVHSNRNTYLHWYLQKPGQSPQLLIYKVSNRFSGVPDRFSGSGSGTDFTLKISRVEAEDVGVYYCSQNTHVPPTFGQGTKVEIERTVAAPSVFIFPPSDEQLKSGTASVVCLLNNFYPREAKVQWKVDNALQSGNSQESVTEQDSKDSTYSLSSTLTLSKADYEKHKVYACEVTHQGLSSPVTKSFNRGEC | 81.3% |
| GpH7-A5/GpH7-B3 variant L328_03V/GpL16-k0 (antibody, human IgG1, kappa, He Ab; copies: 1 + 1 + 2) heavy 1: not shown heavy 2: not shown light: DIVMTQSPLSLPVTPGEPASISCQASESLVHSNRNTYLHWYLQKPGQSPQLLIYKVSNRFSGVPDRFSGSGSGTDFTLKISRVEAEDVGVYYCSQNTHVPPTFGQGTKVEIERTVAAPSVFIFPPSDEQLKSGTASVVCLLNNFYPREAKVQWKVDNALQSGNSQESVTEQDSKDSTYSLSSTLTLSKADYEKHKVYACEVTHQGLSSPVTKSFNRGEC | 80.9% |
| GpH7-A5/GpH7-B3 variant L328_04F/GpL16-k0 (antibody, human IgG1, kappa, He Ab; copies: 1 + 1 + 2) heavy 1: not shown heavy 2: not shown light: DIVMTQSPLSLPVTPGEPASISCQASESLVHSNRNTYLHWYLQKPGQSPQLLIYKVSNRFSGVPDRFSGSGSGTDFTLKISRVEAEDVGVYYCSQNTHVPPTFGQGTKVEIERTVAAPSVFIFPPSDEQLKSGTASVVCLLNNFYPREAKVQWKVDNALQSGNSQESVTEQDSKDSTYSLSSTLTLSKADYEKHKVYACEVTHQGLSSPVTKSFNRGEC | 81.5% |
| GpH7-A5/GpH7-B3 variant L328_06M/GpL16-k0 (antibody, human IgG1, kappa, He Ab; copies: 1 + 1 + 2) heavy 1: not shown heavy 2: not shown light: DIVMTQSPLSLPVTPGEPASISCQASESLVHSNRNTYLHWYLQKPGQSPQLLIYKVSNRFSGVPDRFSGSGSGTDFTLKISRVEAEDVGVYYCSQNTHVPPTFGQGTKVEIERTVAAPSVFIFPPSDEQLKSGTASVVCLLNNFYPREAKVQWKVDNALQSGNSQESVTEQDSKDSTYSLSSTLTLSKADYEKHKVYACEVTHQGLSSPVTKSFNRGEC | 80.8% |
| GpH7-A5/GpH7-B3 variant L328_07I/GpL16-k0 (antibody, human IgG1, kappa, He Ab; copies: 1 + 1 + 2) heavy 1: not shown heavy 2: not shown light: DIVMTQSPLSLPVTPGEPASISCQASESLVHSNRNTYLHWYLQKPGQSPQLLIYKVSNRFSGVPDRFSGSGSGTDFTLKISRVEAEDVGVYYCSQNTHVPPTFGQGTKVEIERTVAAPSVFIFPPSDEQLKSGTASVVCLLNNFYPREAKVQWKVDNALQSGNSQESVTEQDSKDSTYSLSSTLTLSKADYEKHKVYACEVTHQGLSSPVTKSFNRGEC | 86.4% |
| GpH7-A5/GpH7-B3 variant L328_13S/GpL16-k0 (antibody, human IgG1, kappa, He Ab; copies: 1 + 1 + 2) heavy 1: not shown heavy 2: not shown light: DIVMTQSPLSLPVTPGEPASISCQASESLVHSNRNTYLHWYLQKPGQSPQLLIYKVSNRFSGVPDRFSGSGSGTDFTLKISRVEAEDVGVYYCSQNTHVPPTFGQGTKVEIERTVAAPSVFIFPPSDEQLKSGTASVVCLLNNFYPREAKVQWKVDNALQSGNSQESVTEQDSKDSTYSLSSTLTLSKADYEKHKVYACEVTHQGLSSPVTKSFNRGEC | 73.7% |
| GpH7-A5/GpH7-B3 variant L328_14T/GpL16-k0 (antibody, human IgG1, kappa, He Ab; copies: 1 + 1 + 2) heavy 1: not shown heavy 2: not shown light: DIVMTQSPLSLPVTPGEPASISCQASESLVHSNRNTYLHWYLQKPGQSPQLLIYKVSNRFSGVPDRFSGSGSGTDFTLKISRVEAEDVGVYYCSQNTHVPPTFGQGTKVEIERTVAAPSVFIFPPSDEQLKSGTASVVCLLNNFYPREAKVQWKVDNALQSGNSQESVTEQDSKDSTYSLSSTLTLSKADYEKHKVYACEVTHQGLSSPVTKSFNRGEC | 77.4% |
| GpH7-A5/GpH7-B3 variant L328_15Y/GpL16-k0 (antibody, human IgG1, kappa, He Ab; copies: 1 + 1 + 2) heavy 1: not shown heavy 2: not shown light: DIVMTQSPLSLPVTPGEPASISCQASESLVHSNRNTYLHWYLQKPGQSPQLLIYKVSNRFSGVPDRFSGSGSGTDFTLKISRVEAEDVGVYYCSQNTHVPPTFGQGTKVEIERTVAAPSVFIFPPSDEQLKSGTASVVCLLNNFYPREAKVQWKVDNALQSGNSQESVTEQDSKDSTYSLSSTLTLSKADYEKHKVYACEVTHQGLSSPVTKSFNRGEC | 70.2% |
